{
  "source": "patent US12331110B2",
  "about": "“Monoclonal antibodies against endotrophin and the use thereof” (THE BOARD OF REGENTS OF THE UNIVERSITY OF TEXAS SYSTEM, priority 2018, dated 2025)",
  "molecules": {"B1": {"name": "ETP-mAb4: rabbit monoclonal anti-human endotrophin antibody selected for further study; VH SEQ ID NO: 125, VL SEQ ID NO: 126 (antibody, V domains shown)", "VH": "SSRVKESGGDLVKPGASLTLTCKASGFSFSSGYYICWVRQAPGKGLEWIACIYGGNNNPYYANWVNGRFTTSKTSSTTVTLQMTNLTGADTATYFCARKDINIGGAYELWGPGTLVTISS", "VL": "ELVMTQTPASVSEPVGGTVTINCQASQSISSSYLSWYQQKPGQPPKLLIYKASTLASGVPSRFKGSGSGTQFSLTISDLECADAATYYCQYSDWANSYGNAFGGGTEVVVK"}},
  "key": {"MCF7 breast cancer cells": {"tested_on": "MCF7 breast cancer cells", "assay": "MCF7 cisplatin/endotrophin cell survival (MTS) neutralization assay", "type": "cell-based, human", "description": "FIGS. 3A-D. Generation and screening of anti-human endotrophin. (FIG. 3A) MCF7 breast cancer cells (20,000 cells) were plated into a 96-well plate. Cells were then treated with 10 μm cisplatin, 10 μm cisplatin/100 ng/mL endotrophin, and 10 μm cisplatin/100 ng/mL endotrophin/10 μg/mL ETPmAb4 for 24 hr. Cell survival was measured using a CellTiter One Solution Cell Proliferation Assay. Statistical significance of the curve fit parameters was tested using the extra sum of squares F test with P<0.05 considered significant. Goodness of curve fit is described using r2. Mean±SEM, n=3. (FIG. 3B) ETP transfected MCF7 cells (100,000 cells) were plated into a 24-well plate with 500 μL media. Then 4 μL of supernatant was loaded for Western blotting. It is estimated that approximately 1 ng of ETP was loaded, compared with the standard ETP (2 ng band). The concentration yields approximately 0.052 pg secreted ETP/hr/cell. […] ETP expression was determined by qRT-PCR and normalized to GAPDH. […] Migrated cells were counted after a 2 hr incubation. In all cases, data was represented as mean±SD, and statistical significance (*** p<0.0001) was calculated using an unpaired Student's t-test.\nMTS assay screening endotrophin monoclonal antibodies. […] Cell survival was measured using a CellTiter One Solution Cell Proliferation Assay. […] The plate was then read at 490 nm using a Sunrise microplate reader (TECAN). […]"}, "MDA-MB-231 cells": {"tested_on": "MDA-MB-231 cells", "assay": "MDA-MB-231 tumor growth in nude mice", "type": "in vivo", "description": "FIGS. 6A-D. The antibody effects on MDA-MB-231 cells in vivo. (FIG. 6A) MDA-MB-231 cells (2×10^6 cells) were implanted into nude mice. Then 2.5 mg/kg of cisplatin and 20 mg/kg of ETPmAb4 antibody (twice a week) were injected after 10-days implantation for 5-weeks. Tumor volume was determined by caliper measurement. The insert reflects a simplified analysis of control antibody versus ETPmAb4 with associated statistics. (FIG. 6B) MDA-MB-231 cells (2×10^6 cells) were implanted into nude mice. Treatment was started when the tumor volume was over 30 mm^3. At that point, 2.5 mg/kg of cisplatin and 20 mg/kg of ETPmAb4 antibody (twice weekly) were injected for 5-weeks. Tumor volumes were determined by caliper measurements. The insert reflects a simplified analysis of control antibody versus ETPmAb4 with associated statistics. (FIG. 6C) SKOV3 cells (2×10^6 cells) were implanted into nude mice. Then 2.5 mg/kg of cisplatin and 20 mg/kg of ETPmAb4 antibody (twice weekly) were injected 10-days after implantation for 5-weeks. Tumor volumes were determined by caliper measurements. The insert reflects a simplified analysis of control antibody versus ETPmAb4 with associated statistics. (FIG. 6D) MDA-MB-231 cells (2×10^6 cells) were implanted into nude mice. Then 2.5 mg/kg of cisplatin, 20 mg/kg of ETPmAb4 antibody and 20 mg/kg of humanized ETPmAb4 antibody (twice a week) were injected after 10-days implantation for 5-weeks. Tumor volume was determined by caliper measurement. […]\nAnimal experiments. […] Tumors were measured twice a week, beginning 10 days after injection, and tumor volume was calculated by length×(width) 2/2 (mm^3).\nAnalysis of Tumor Progression. Tumor onset was monitored twice weekly by palpation. Tumor sizes were measured using a digital caliper twice weekly and the volumes were calculated as length× width2)/2. […] Animals were sacrificed when the tumor burden visibly affected the host, or when the tumors reached the IACUC pre-determined limit of 20 mm along one axis. […]\nAfter humanization, the binding affinity of hETPmAb4 to endotrophin was measured in Octet RED96. […]"}},
  "data": [
    {"molecule": "B1", "values": [
      {"measurement": "neutralization of endotrophin-mediated MCF-7 cell survival", "setting": "MCF7 breast cancer cells; 10 μm cisplatin, 100 ng/mL endotrophin, 10 μg/mL antibody, 24 hr", "value": "completely neutralize"},
      {"measurement": "restoration of cisplatinum susceptibility of endotrophin-exposed MCF-7 cells", "setting": "MCF7 breast cancer cells; cisplatin plus endotrophin", "value": "forced the cells to become susceptible to cisplatinum, in a dose-dependent manner"},
      {"measurement": "lesion growth, combination with cisplatinum", "setting": "MDA-MB-231 cells; 20 mg/kg antibody plus 2.5 mg/kg cisplatin", "value": "essentially inhibited lesion growth"},
      {"measurement": "rate of tumor growth, antibody alone", "setting": "MDA-MB-231 cells; 20 mg/kg twice a week", "value": "significantly reduced the rate of tumor growth"}
    ]}
  ]
}
